Source: US20260242419A1, “A CYCLIC PEPTIDE FOR TRAPPING INTERLEUKIN-1 BETA” (Merck Sharp & Dohme LLC, priority 2023, published 2026)
Starred links: 1 amine or outer side, 2 acyl side, 3 side chain; linkers in the order of their positions; H or OH if unused. Non-standard residues stand in square brackets, D forms with d. dProc3Bn4Pyrim2NMe = (2R,3S)-3-[[4-[2-(methylamino)pyrimidin-5-yl]phenyl]methyl]pyrrolidine-2-carboxylic acid, CNc1ncc(-c2ccc(C[C@H]3CCN([*:1])[C@H]3C(=O)[*:2])cc2)cn1; dProc3Bn4Pyrim2OMe = (2R,3S)-3-[[4-(2-methoxypyrimidin-5-yl)phenyl]methyl]pyrrolidine-2-carboxylic acid, COc1ncc(-c2ccc(C[C@H]3CCN([*:1])[C@H]3C(=O)[*:2])cc2)cn1; dProc3Bn4Pyrim2NH2 = (2R,3S)-3-[[4-(2-aminopyrimidin-5-yl)phenyl]methyl]pyrrolidine-2-carboxylic acid, Nc1ncc(-c2ccc(C[C@H]3CCN([*:1])[C@H]3C(=O)[*:2])cc2)cn1; dProc3Bn4Pyraz5NH2 = (2R,3S)-3-[[4-(5-aminopyrazin-2-yl)phenyl]methyl]pyrrolidine-2-carboxylic acid, Nc1cnc(-c2ccc(C[C@H]3CCN([*:1])[C@H]3C(=O)[*:2])cc2)cn1; dProc3Bn4Iso3Me = (2R,3S)-3-(4-(3-methylisoxazol-4-yl)benzyl)pyrrolidine-2-carboxylic acid, Cc1nocc1-c1ccc(C[C@H]2CCN([*:1])[C@H]2C(=O)[*:2])cc1; dProc3Bn4Pyrim = (2R,3S)-3-[(4-pyrimidin-5-ylphenyl)methyl]pyrrolidine-2-carboxylic acid, O=C([C@H]1[C@@H](Cc2ccc(-c3cncnc3)cc2)CCN1[*:1])[*:2]; dProc3Bn4Pyrz = (2R,3S)-3-[(4-pyridazin-4-ylphenyl)methyl]pyrrolidine-2-carboxylic acid, O=C([C@H]1[C@@H](Cc2ccc(-c3ccnnc3)cc2)CCN1[*:1])[*:2]; dProc3Bn4Pyr2 = (2R,3S)-3-[[4-(2-pyridyl)phenyl]methyl]pyrrolidine-2-carboxylic acid, O=C([C@H]1[C@@H](Cc2ccc(-c3ccccn3)cc2)CCN1[*:1])[*:2]; dProc3Bn4Pyr3 = (2R,3S)-3-[[4-(3-pyridyl)phenyl]methyl]pyrrolidine-2-carboxylic acid, O=C([C@H]1[C@@H](Cc2ccc(-c3cccnc3)cc2)CCN1[*:1])[*:2]; dProc3Bn4Pyr4 = (2R,3S)-3-[[4-(4-pyridyl)phenyl]methyl]pyrrolidine-2-carboxylic acid, O=C([C@H]1[C@@H](Cc2ccc(-c3ccncc3)cc2)CCN1[*:1])[*:2]; Trp(βS-Me,4-F) = C[C@@H](c1c[nH]c2cccc(F)c12)[C@H](N)C(=O)O; Bip(4'-COOH) = N[C@@H](Cc1ccc(-c2ccc(C(=O)O)cc2)cc1)C(=O)O; dPro(4R-Bzl(4-F)) = O=C(O)[C@H]1C[C@@H](Cc2ccc(F)cc2)CN1; Ala(pyrimidin-5-yl) = N[C@@H](Cc1cncnc1)C(=O)O; Phe(4-COOH) = N[C@@H](Cc1ccc(C(=O)O)cc1)C(=O)O; Pro(cis-4-F) = O=C(O)[C@@H]1C[C@H](F)CN1; 4Pal = N[C@@H](Cc1ccncc1)C(=O)O; Cit = NC(=O)NCCC[C@H](N)C(=O)O; Dab = NCC[C@H](N)C(=O)O; Aib = CC(C)(N)C(=O)O

B1: SEQ ID NO: 6 (peptide)
peptide: cyclo([Bip(4'-COOH)][4Pal][Phe(4-COOH)]G[Pro(cis-4-F)][Trp(βS-Me,4-F)][Aib]AW[Aib][Ala(pyrimidin-5-yl)]Q[Dab]G[dPro(4R-Bzl(4-F))])
SMILES: C[C@@H]1NC(=O)C(C)(C)NC(=O)[C@H]([C@@H](C)c2c[nH]c3cccc(F)c23)NC(=O)[C@@H]2C[C@H](F)CN2C(=O)CNC(=O)[C@H](Cc2ccc(C(=O)O)cc2)NC(=O)[C@H](Cc2ccncc2)NC(=O)[C@H](Cc2ccc(-c3ccc(C(=O)O)cc3)cc2)NC(=O)[C@H]2C[C@@H](Cc3ccc(F)cc3)CN2C(=O)CNC(=O)[C@H](CCN)NC(=O)[C@H](CCC(N)=O)NC(=O)[C@H](Cc2cncnc2)NC(=O)C(C)(C)NC(=O)[C@H](Cc2c[nH]c3ccccc23)NC1=O
B2: SEQ ID NO: 52 (peptide)
peptide: cyclo([Bip(4'-COOH)][4Pal][Phe(4-COOH)]G[Pro(cis-4-F)][Trp(βS-Me,4-F)][Aib]EW[Aib][Cit]Q[Dab]G[dPro(4R-Bzl(4-F))])
SMILES: C[C@@H](c1c[nH]c2cccc(F)c12)[C@@H]1NC(=O)[C@@H]2C[C@H](F)CN2C(=O)CNC(=O)[C@H](Cc2ccc(C(=O)O)cc2)NC(=O)[C@H](Cc2ccncc2)NC(=O)[C@H](Cc2ccc(-c3ccc(C(=O)O)cc3)cc2)NC(=O)[C@H]2C[C@@H](Cc3ccc(F)cc3)CN2C(=O)CNC(=O)[C@H](CCN)NC(=O)[C@H](CCC(N)=O)NC(=O)[C@H](CCCNC(N)=O)NC(=O)C(C)(C)NC(=O)[C@H](Cc2c[nH]c3ccccc23)NC(=O)[C@H](CCC(=O)O)NC(=O)C(C)(C)NC1=O
B3: SEQ ID NO: 53 (peptide)
peptide: cyclo([Bip(4'-COOH)][4Pal][Phe(4-COOH)]G[Pro(cis-4-F)][Trp(βS-Me,4-F)][Aib]EW[Aib][Ala(pyrimidin-5-yl)]Q[Dab]G[dProc3Bn4Pyrim])
SMILES: C[C@@H](c1c[nH]c2cccc(F)c12)[C@@H]1NC(=O)[C@@H]2C[C@H](F)CN2C(=O)CNC(=O)[C@H](Cc2ccc(C(=O)O)cc2)NC(=O)[C@H](Cc2ccncc2)NC(=O)[C@H](Cc2ccc(-c3ccc(C(=O)O)cc3)cc2)NC(=O)[C@H]2[C@@H](Cc3ccc(-c4cncnc4)cc3)CCN2C(=O)CNC(=O)[C@H](CCN)NC(=O)[C@H](CCC(N)=O)NC(=O)[C@H](Cc2cncnc2)NC(=O)C(C)(C)NC(=O)[C@H](Cc2c[nH]c3ccccc23)NC(=O)[C@H](CCC(=O)O)NC(=O)C(C)(C)NC1=O
B4: SEQ ID NO: 54 (peptide)
peptide: cyclo([Bip(4'-COOH)][4Pal][Phe(4-COOH)]G[Pro(cis-4-F)][Trp(βS-Me,4-F)][Aib]EW[Aib][Ala(pyrimidin-5-yl)]Q[Dab]G[dProc3Bn4Pyrim2NMe])
SMILES: CNc1ncc(-c2ccc(C[C@H]3CCN4C(=O)CNC(=O)[C@H](CCN)NC(=O)[C@H](CCC(N)=O)NC(=O)[C@H](Cc5cncnc5)NC(=O)C(C)(C)NC(=O)[C@H](Cc5c[nH]c6ccccc56)NC(=O)[C@H](CCC(=O)O)NC(=O)C(C)(C)NC(=O)[C@H]([C@@H](C)c5c[nH]c6cccc(F)c56)NC(=O)[C@@H]5C[C@H](F)CN5C(=O)CNC(=O)[C@H](Cc5ccc(C(=O)O)cc5)NC(=O)[C@H](Cc5ccncc5)NC(=O)[C@H](Cc5ccc(-c6ccc(C(=O)O)cc6)cc5)NC(=O)[C@@H]34)cc2)cn1
B5: SEQ ID NO: 61 (peptide)
peptide: cyclo([Bip(4'-COOH)][4Pal][Phe(4-COOH)]G[Pro(cis-4-F)][Trp(βS-Me,4-F)][Aib]EW[Aib][Ala(pyrimidin-5-yl)]Q[Dab]G[dProc3Bn4Pyr2])
SMILES: C[C@@H](c1c[nH]c2cccc(F)c12)[C@@H]1NC(=O)[C@@H]2C[C@H](F)CN2C(=O)CNC(=O)[C@H](Cc2ccc(C(=O)O)cc2)NC(=O)[C@H](Cc2ccncc2)NC(=O)[C@H](Cc2ccc(-c3ccc(C(=O)O)cc3)cc2)NC(=O)[C@H]2[C@@H](Cc3ccc(-c4ccccn4)cc3)CCN2C(=O)CNC(=O)[C@H](CCN)NC(=O)[C@H](CCC(N)=O)NC(=O)[C@H](Cc2cncnc2)NC(=O)C(C)(C)NC(=O)[C@H](Cc2c[nH]c3ccccc23)NC(=O)[C@H](CCC(=O)O)NC(=O)C(C)(C)NC1=O
B6: SEQ ID NO: 56 (peptide)
peptide: cyclo([Bip(4'-COOH)][4Pal][Phe(4-COOH)]G[Pro(cis-4-F)][Trp(βS-Me,4-F)][Aib]EW[Aib][Ala(pyrimidin-5-yl)]Q[Dab]G[dProc3Bn4Pyr3])
SMILES: C[C@@H](c1c[nH]c2cccc(F)c12)[C@@H]1NC(=O)[C@@H]2C[C@H](F)CN2C(=O)CNC(=O)[C@H](Cc2ccc(C(=O)O)cc2)NC(=O)[C@H](Cc2ccncc2)NC(=O)[C@H](Cc2ccc(-c3ccc(C(=O)O)cc3)cc2)NC(=O)[C@H]2[C@@H](Cc3ccc(-c4cccnc4)cc3)CCN2C(=O)CNC(=O)[C@H](CCN)NC(=O)[C@H](CCC(N)=O)NC(=O)[C@H](Cc2cncnc2)NC(=O)C(C)(C)NC(=O)[C@H](Cc2c[nH]c3ccccc23)NC(=O)[C@H](CCC(=O)O)NC(=O)C(C)(C)NC1=O
B7: SEQ ID NO: 58 (peptide)
peptide: cyclo([Bip(4'-COOH)][4Pal][Phe(4-COOH)]G[Pro(cis-4-F)][Trp(βS-Me,4-F)][Aib]EW[Aib][Ala(pyrimidin-5-yl)]Q[Dab]G[dProc3Bn4Pyrz])
SMILES: C[C@@H](c1c[nH]c2cccc(F)c12)[C@@H]1NC(=O)[C@@H]2C[C@H](F)CN2C(=O)CNC(=O)[C@H](Cc2ccc(C(=O)O)cc2)NC(=O)[C@H](Cc2ccncc2)NC(=O)[C@H](Cc2ccc(-c3ccc(C(=O)O)cc3)cc2)NC(=O)[C@H]2[C@@H](Cc3ccc(-c4ccnnc4)cc3)CCN2C(=O)CNC(=O)[C@H](CCN)NC(=O)[C@H](CCC(N)=O)NC(=O)[C@H](Cc2cncnc2)NC(=O)C(C)(C)NC(=O)[C@H](Cc2c[nH]c3ccccc23)NC(=O)[C@H](CCC(=O)O)NC(=O)C(C)(C)NC1=O
B8: SEQ ID NO: 62 (peptide)
peptide: cyclo([Bip(4'-COOH)][4Pal][Phe(4-COOH)]G[Pro(cis-4-F)][Trp(βS-Me,4-F)][Aib]EW[Aib][Ala(pyrimidin-5-yl)]Q[Dab]G[dProc3Bn4Iso3Me])
SMILES: Cc1nocc1-c1ccc(C[C@H]2CCN3C(=O)CNC(=O)[C@H](CCN)NC(=O)[C@H](CCC(N)=O)NC(=O)[C@H](Cc4cncnc4)NC(=O)C(C)(C)NC(=O)[C@H](Cc4c[nH]c5ccccc45)NC(=O)[C@H](CCC(=O)O)NC(=O)C(C)(C)NC(=O)[C@H]([C@@H](C)c4c[nH]c5cccc(F)c45)NC(=O)[C@@H]4C[C@H](F)CN4C(=O)CNC(=O)[C@H](Cc4ccc(C(=O)O)cc4)NC(=O)[C@H](Cc4ccncc4)NC(=O)[C@H](Cc4ccc(-c5ccc(C(=O)O)cc5)cc4)NC(=O)[C@@H]23)cc1
B9: SEQ ID NO: 57 (peptide)
peptide: cyclo([Bip(4'-COOH)][4Pal][Phe(4-COOH)]G[Pro(cis-4-F)][Trp(βS-Me,4-F)][Aib]EW[Aib][Ala(pyrimidin-5-yl)]Q[Dab]G[dProc3Bn4Pyraz5NH2])
SMILES: C[C@@H](c1c[nH]c2cccc(F)c12)[C@@H]1NC(=O)[C@@H]2C[C@H](F)CN2C(=O)CNC(=O)[C@H](Cc2ccc(C(=O)O)cc2)NC(=O)[C@H](Cc2ccncc2)NC(=O)[C@H](Cc2ccc(-c3ccc(C(=O)O)cc3)cc2)NC(=O)[C@H]2[C@@H](Cc3ccc(-c4cnc(N)cn4)cc3)CCN2C(=O)CNC(=O)[C@H](CCN)NC(=O)[C@H](CCC(N)=O)NC(=O)[C@H](Cc2cncnc2)NC(=O)C(C)(C)NC(=O)[C@H](Cc2c[nH]c3ccccc23)NC(=O)[C@H](CCC(=O)O)NC(=O)C(C)(C)NC1=O
B10: SEQ ID NO: 60 (peptide)
peptide: cyclo([Bip(4'-COOH)][4Pal][Phe(4-COOH)]G[Pro(cis-4-F)][Trp(βS-Me,4-F)][Aib]EW[Aib][Ala(pyrimidin-5-yl)]Q[Dab]G[dProc3Bn4Pyrim2OMe])
SMILES: COc1ncc(-c2ccc(C[C@H]3CCN4C(=O)CNC(=O)[C@H](CCN)NC(=O)[C@H](CCC(N)=O)NC(=O)[C@H](Cc5cncnc5)NC(=O)C(C)(C)NC(=O)[C@H](Cc5c[nH]c6ccccc56)NC(=O)[C@H](CCC(=O)O)NC(=O)C(C)(C)NC(=O)[C@H]([C@@H](C)c5c[nH]c6cccc(F)c56)NC(=O)[C@@H]5C[C@H](F)CN5C(=O)CNC(=O)[C@H](Cc5ccc(C(=O)O)cc5)NC(=O)[C@H](Cc5ccncc5)NC(=O)[C@H](Cc5ccc(-c6ccc(C(=O)O)cc6)cc5)NC(=O)[C@@H]34)cc2)cn1
B11: SEQ ID NO: 55 (peptide)
peptide: cyclo([Bip(4'-COOH)][4Pal][Phe(4-COOH)]G[Pro(cis-4-F)][Trp(βS-Me,4-F)][Aib]EW[Aib][Ala(pyrimidin-5-yl)]Q[Dab]G[dProc3Bn4Pyr4])
SMILES: C[C@@H](c1c[nH]c2cccc(F)c12)[C@@H]1NC(=O)[C@@H]2C[C@H](F)CN2C(=O)CNC(=O)[C@H](Cc2ccc(C(=O)O)cc2)NC(=O)[C@H](Cc2ccncc2)NC(=O)[C@H](Cc2ccc(-c3ccc(C(=O)O)cc3)cc2)NC(=O)[C@H]2[C@@H](Cc3ccc(-c4ccncc4)cc3)CCN2C(=O)CNC(=O)[C@H](CCN)NC(=O)[C@H](CCC(N)=O)NC(=O)[C@H](Cc2cncnc2)NC(=O)C(C)(C)NC(=O)[C@H](Cc2c[nH]c3ccccc23)NC(=O)[C@H](CCC(=O)O)NC(=O)C(C)(C)NC1=O
B12: SEQ ID NO: 59 (peptide)
peptide: cyclo([Bip(4'-COOH)][4Pal][Phe(4-COOH)]G[Pro(cis-4-F)][Trp(βS-Me,4-F)][Aib]EW[Aib][Ala(pyrimidin-5-yl)]Q[Dab]G[dProc3Bn4Pyrim2NH2])
SMILES: C[C@@H](c1c[nH]c2cccc(F)c12)[C@@H]1NC(=O)[C@@H]2C[C@H](F)CN2C(=O)CNC(=O)[C@H](Cc2ccc(C(=O)O)cc2)NC(=O)[C@H](Cc2ccncc2)NC(=O)[C@H](Cc2ccc(-c3ccc(C(=O)O)cc3)cc2)NC(=O)[C@H]2[C@@H](Cc3ccc(-c4cnc(N)nc4)cc3)CCN2C(=O)CNC(=O)[C@H](CCN)NC(=O)[C@H](CCC(N)=O)NC(=O)[C@H](Cc2cncnc2)NC(=O)C(C)(C)NC(=O)[C@H](Cc2c[nH]c3ccccc23)NC(=O)[C@H](CCC(=O)O)NC(=O)C(C)(C)NC1=O

Target: Recombinant human IL-1β (BioLegend 579404) (human, UniProt P01584 117-269)
Experiment: cell-based or functional assay

Binder | MRC5 IC50 [nM]
B1 | 0.057
B2 | 0.021
B3 | 0.018
B4 | 0.021
B5 | 0.022
B6 | 0.022
B7 | 0.037
B8 | 0.021
B9 | 0.019
B10 | 0.018
B11 | 0.024
B12 | 0.018
